From the supplement of paper PMC11246515 come the findings set out here.

± gives the standard deviation of the averaged measurements.

A short description of the data set: total protein half-life in vivo (active degradation + dilution); higher = more stable protein.
The mark [1] stands for this setting: E. coli NCM3722 delta-clpP, growth: N-lim chemostat, doubling time 6 h.
[2] abbreviates: E. coli NCM3722 delta-smpB, growth: N-lim chemostat, doubling time 6 h.
Setting [3] is: wild type E. coli NCM3722, growth: C-lim chemostat, doubling time 6 h.
Where [4] appears, read: wild type E. coli NCM3722, growth: N-lim chemostat, doubling time 12 h.
Where [5] appears, read: wild type E. coli NCM3722, growth: P-lim chemostat, doubling time 12 h.
Where [6] appears, read: E. coli NCM3722 delta-clpP delta-lon delta-hslV, growth: N-lim chemostat, doubling time 6 h.
Where [7] appears, read: wild type E. coli NCM3722, growth: C-lim chemostat, doubling time 3 h.
Setting [8] is: wild type E. coli NCM3722, growth: C-lim chemostat, doubling time 12 h.
The mark [9] stands for this setting: E. coli NCM3722 delta-hslV, growth: N-lim chemostat, doubling time 6 h.
Where [10] appears, read: wild type E. coli NCM3722, growth: N-lim chemostat, doubling time 6 h.
Where [11] appears, read: wild type E. coli NCM3722, growth: P-lim chemostat, doubling time 6 h.
Setting [12] is: E. coli NCM3722 delta-lon, growth: N-lim chemostat, doubling time 6 h.

Turning to “MKSVFTISASLAISLMLCCTAQANDHKLLGAIAMPRNETNDLALKLPVCRIVKRIQLSADHGDLQLSGASVYFKAARSASQSLNIPSEIKEGQTTDWININSDNDNKRCVSKITFSGHTVNSSDMATLKIIGDD”, the “total protein half-life in vivo” value reads like this: under setting [1], 3.9 h; under setting [2], 5.9 h; under setting [3], 4.34 h; under setting [4], 13 h; under setting [5], 8.91 h.
On to “MLILKNVTAVQLHPAKVQEGVDIAIENDVIVAIGDALTQRYPDASFKEMHGRIVMPGIVCSHNHFYSGLSRGIMANIAPCPDFISTLKNLWWRLDRALDEESLYYSGLICSLEAIKSGCTSVIDHHASPAYIGGSLSTLRDAFLKVGLRAMTCFETTDRNNGIKELQEGVEENIRFARLIDEAKKATSEPYLVEAHIGAHAPFTVPDAGLEMLREAVKATGRGLHIHAAEDLYDVSYSHHWYGKDLLARLAQFDLIDSKTLVAHGLYLSKDDITLLNQRDAFLVHNARSNMNNHVGYNHHLSDIRNLALGTDGIGSDMFEEMKFAFFKHRDAGGPLWPDSFAKALTNGNELMSRNFGAKFGLLEAGYKADLTICDYNSPTPLLADNIAGHIAFGMGSGSVHSVMVNGVMVYEDRQFNFDCDSIYAQARKAAASMWRRMDALA”, for which the “total protein half-life in vivo” value came out at 3.15 h under setting [6], 2.62 h under setting [7], 4.3 h under setting [3] and 11.2 h under setting [8].
As to “MIWIMLATLAVVFVVGFRVLTSGARKAIRRLSDRLNIDVVPVESMVDQMGKSAGDEFLRYLHRPDESHLQNAAQVLLIWQIVIVDGSEQNLLQWHRILQKARLAAPITDAQVRLALGFLRETEPEMQDINAFQMRYNAFFQPAEGVHWLH [P0ADL3]”, the “total protein half-life in vivo” value is, setting by setting: under setting [6], 5.96 ± 1.4 h; under setting [1], 5.141 ± 0.016 h; under setting [9], 4.75 h; under setting [2], 4.7 ± 0.11 h; under setting [7], 2.98 ± 0.21 h; under setting [3], 5.07 ± 0.086 h. The “total protein half-life in vivo” value under setting [8] worked out at 10.9 ± 2.9 h; the “total protein half-life in vivo” value under setting [10] stood at 4.71 h; the “total protein half-life in vivo” value under setting [4] was found to be 10.8 h; the “total protein half-life in vivo” value under setting [11] is 4.65 ± 0.24 h; the “total protein half-life in vivo” value under setting [5] was 9.29 ± 1.7 h.
“MLQNCAQSNCRIIPKKLRDMKREEICRLLADKVNKLKNKENSLSGLLPDVRLLYGETPFARTPVMYEPGIIILFSGHKIGYINERVFRYDANEYLLLTVPLPFECETYATSEVPLAGLRLNVDILQLQELLMDIGEDEHFQPSMAASGINSATLSEEILCAAERLLDVMERPLDARILGKQIIREILYYVLTGPCGGALLALVSRQTHFSLISRVLKRIENKYTENLSVEQLAAEANMSVSAFHHNFKSVTSTSPLQYLKNYRLHKARMMIIHDGMKASAAAMRVGYESASQFSREFKRYFGVTPGEDAARMRAMQGN”: the “total protein half-life in vivo” value runs as follows: under setting [6], 5 ± 0.43 h; under setting [1], 3.07 ± 0.072 h; under setting [9], 2.48 ± 0.13 h; under setting [12], 4.33 ± 0.18 h; under setting [2], 2.432 ± 0.0042 h; under setting [7], 2.08 ± 0.1 h. Also, the “total protein half-life in vivo” value came to 3.87 ± 0.56 h under setting [3]; 4.94 h under setting [8]; 2.98 h under setting [10]; 3.71 ± 0.24 h under setting [4]; 2.74 h under setting [11]; 4.35 ± 0.82 h under setting [5].
Turning to “MRIGQYQLRNRLIAAPMAGITDRPFRTLCYEMGAGLTVSEMMSSNPQVWESDKSRLRMVHIDEPGIRTVQIAGSDPKEMADAARINVESGAQIIDINMGCPAKKVNRKLAGSALLQYPDVVKSILTEVVNAVDVPVTLKIRTGWAPEHRNCEEIAQLAEDCGIQALTIHGRTRACLFNGEAEYDSIRAVKQKVSIPVIANGDITDPLKARAVLDYTGADALMIGRAAQGRPWIFREIQHYLDTGELLPPLPLAEVKRLLCAHVRELHDFYGPAKGYRIARKHVSWYLQEHAPNDQFRRTFNAIEDASEQLEALEAYFENFA [P0ABT5]”, the “total protein half-life in vivo” value by setting is: under setting [6], 4.65 ± 0.67 h; under setting [1], 3.28 h; under setting [2], 2.21 ± 0.077 h; under setting [7], 2.88 ± 0.28 h; under setting [3], 3.67 ± 0.67 h; under setting [8], 6.75 ± 0.78 h. Also, the “total protein half-life in vivo” value by setting is: under setting [10], 2.23 h; under setting [4], 3.47 h; under setting [11], 5.13 ± 0.28 h; under setting [5], 8.25 ± 0.84 h.
Take “MERFLENAMYASRWLLAPVYFGLSLALVALALKFFQEIIHVLPNIFSMAESDLILVLLSLVDMTLVGGLLVMVMFSGYENFVSQLDISENKEKLNWLGKMDATSLKNKVAASIVAISSIHLLRVFMDAKNVPDNKLMWYVIIHLTFVLSAFVMGYLDRLTRHNH”: the “total protein half-life in vivo” value runs as follows: under setting [12], 6.103 ± 0.048 h; under setting [2], 5.64 ± 0.26 h; under setting [7], 2.92 ± 0.05 h; under setting [8], 11.8 ± 1.8 h; under setting [10], 4.99 ± 0.67 h; under setting [11], 5.88 h. The “total protein half-life in vivo” value under setting [5] worked out at 10.6 h.
“MMIKTRFSRWLTFFTFAAAVALALPAKANTWPLPPAGSRLVGENKFHVVENDGGSLEAIAKKYNVGFLALLQANPGVDPYVPRAGSVLTIPLQTLLPDAPREGIVINIAELRLYYYPPGKNSVTVYPIGIGQLGGDTLTPTMVTTVSDKRANPTWTPTANIRARYKAQGIELPAVVPAGLDNPMGHHAIRLAAYGGVYLLHGTNADFGIGMRVSSGCIRLRDDDIKTLFSQVTPGTKVNIINTPIKVSAEPNGARLVEVHQPLSEKIDDDPQLLPITLNSAMQSFKDAAQTDAEVMQHVMDVRSGMPVDVRRHQVSPQTL”: the “total protein half-life in vivo” value by setting is: under setting [6], 5.73 h; under setting [1], 4.84 h; under setting [12], 6.23 ± 1.4 h; under setting [2], 5.56 h; under setting [7], 1.51 ± 0.55 h; under setting [3], 2.85 ± 0.33 h. Further, the “total protein half-life in vivo” value by setting is: under setting [8], 4.13 ± 0.68 h; under setting [10], 6.17 h; under setting [4], 10.5 h; under setting [11], 5.17 h; under setting [5], 3.45 h.
“MSMSTSTEVIAHHWAFAIFLIVAIGLCCLMLVGGWFLGGRARARSKNVPFESGIDSVGSARLRLSAKFYLVAMFFVIFDVEALYLFAWSTSIRESGWVGFVEAAIFIFVLLAGLVYLVRIGALDWTPARSRRERMNPETNSIANRQR [P0AFC3]”: the “total protein half-life in vivo” value under setting [6] is 7.01 ± 0.28 h; the “total protein half-life in vivo” value under setting [9] was found to be 6.15 ± 1.1 h; the “total protein half-life in vivo” value under setting [2] came out at 6.317 ± 0.023 h; the “total protein half-life in vivo” value under setting [7] turned out to be 3.72 ± 0.32 h; the “total protein half-life in vivo” value under setting [8] turned out to be 13 ± 0.5 h; the “total protein half-life in vivo” value under setting [10] was found to be 6.22 ± 0.18 h. The “total protein half-life in vivo” value runs as follows: under setting [11], 6.293 ± 0.024 h; under setting [5], 14.3 ± 2.1 h.
